Experiment [1] addresses T1, human CD8 (captured on the Octet biosensor) (human, UniProt P01732 22-182, limits assumed).
T1 construct: Construct not described; also called recombinant human CD8a
Briefly: Octet (BLI); human CD8 captured, dipped into multiple concentrations of the one-arm mAb. A general note: Biolayer interferometry detects binding as a change in optical thickness at a sensor tip.

In experiment [2] the target is T2, cynomolgus CD8 (captured on the Octet biosensor) (cynomolgus).
T2 construct: Construct not described; also called cyno CD8; cyno CD8a
Put plainly: Octet (BLI); cynomolgus CD8 captured, dipped into multiple concentrations of the one-arm mAb.

The target in experiment [3] is T3, NKG2D (affinity ladder and epitope binning; construct not stated) (UniProt P26718 73-216, limits assumed).
T3 sequence (looked up): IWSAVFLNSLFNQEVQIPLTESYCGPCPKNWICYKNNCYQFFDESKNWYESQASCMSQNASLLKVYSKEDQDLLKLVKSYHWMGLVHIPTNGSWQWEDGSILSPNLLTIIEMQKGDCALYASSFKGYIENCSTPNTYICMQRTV
Put plainly: affinity ladder; method and format not stated.

Experiment [4] has as its target T4, XENP27197 (human, UniProt P0DOX7 1-214).
T4 construct: scIL-15/Rα x Fab format; also called NKG2D-targeted IL-15/Rα-Fc fusion based on 1D7B4 and IL-15(N4D/N65D) variant
Briefly: Octet (BLI): HIS-tagged human NKG2D captured on HIS1K biosensors, dipped into multiple concentrations of the fusion; global fit, 1:1 Langmuir model.

Experiment [5] deals with T5, XENP27145 (human).
T5 construct: also called NKG2D-targeted IL-15(N4D/N65D)/Rα-Fc fusion with targeting arm based on MS
The description is as above.

Experiment [6] has as its target T2, cynomolgus CD8 (captured on the Octet …). Put plainly: method not stated in the sentence (Octet in the same example).

T1 sequence (P01732 22-182 limits assumed): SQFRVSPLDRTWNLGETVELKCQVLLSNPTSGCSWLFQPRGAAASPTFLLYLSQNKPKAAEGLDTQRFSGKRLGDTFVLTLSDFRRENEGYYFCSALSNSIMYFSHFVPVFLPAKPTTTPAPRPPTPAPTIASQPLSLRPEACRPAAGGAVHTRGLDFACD

B1: XENP26231 (antibody, V domains shown)
VH: QVQLVQSGAEVKKPGASVKVSCKASGFNIKDTYIHWVRQAPGKGLEWMGRIDPDNGETLYASKFQGRVTITADTSINTAYMELSRLRSDDTAVYYCGRGYGKYVFDHWGQGTTVTVSS
VL: AIKMTQSPSSLSASVGDRVTITCRTSRSISKYLAWYQEKPGKTNKLLIYSGSTLQSGIPSRFSGSGSGTDFTLTISSLQPEDFATYYCQQHNENPLTFGAGTKLEIK
notes: also called OKT8_H2.154_L1.103 one-arm mAb
Take B1: in experiment [1], the Kd was 95.5 nM, the koff came out at 0.0226 s⁻¹ and the kon was 236000 M⁻¹ s⁻¹. In experiment [2], binding was put at a Kd of 95.9 nM, the off-rate constant (koff) amounted to 0.00887 s⁻¹ and the kon came to 92500 M⁻¹ s⁻¹.

B2: XENP26238 (antibody, V domains shown)
VH: QVQLVQSGAEVKKPGASVKVSCKASGFNIKDTYIHWVRQAPGKGLEWMGRIDPDNDETLYASKFQGRVTITADTSINTAYMELSRLRSDDTAVYYCGRGYGKYVFDHWGQGTTVTVSS
VL: AIKMTQSPSSLSASVGDRVTITCRTSRSISKYLAWYQEKPGKTNKLLIYSGSTLQSGIPSRFSGSGSGTDFTLTISSLQPEDFATYYCQQHNENPLTFGAGTKLEIK
notes: also called OKT8_H2.161_L1.103 one-arm mAb
For the molecule B2, in experiment [1], the dissociation constant Kd was 96.6 nM, the off-rate (koff) is 0.0262 s⁻¹ and the kon worked out at 271000 M⁻¹ s⁻¹. In experiment [2], this molecule yielded a dissociation constant Kd of 107 nM, a dissociation rate constant (koff) of 0.00894 s⁻¹ and an association rate constant (kon) of 83900 M⁻¹ s⁻¹.

B3: XENP26235 (antibody, V domains shown)
VH: QVQLVQSGAEVKKPGASVKVSCKASGFNIKDTYIHWVRQAPGKGLEWMGRIDPDNGETLYASKFQGRVTMTADTSINTAYMELSRLRSDDTAVYYCGRGYGYYYFDHWGQGTTVTVSS
VL: AIKMTQSPSSLSASVGDRVTITCRTSRSISKYLAWYQEKPGKTNKLLIYSGSTLQSGIPSRFSGSGSGTDFTLTISSLQPEDFATYYCQQHNENPLTFGAGTKLEIK
notes: also called OKT8_H2.158_L1.103 one-arm mAb
With B3, in experiment [1], the equilibrium dissociation constant (Kd) was determined as 1.38 nM, the koff was found to be 0.000992 s⁻¹ and the kon turned out to be 718000 M⁻¹ s⁻¹. In experiment [2], the Kd amounted to 33.5 nM, the off-rate (koff) was 0.00477 s⁻¹ and the kon stood at 143000 M⁻¹ s⁻¹.

B4: XENP26242 (antibody, V domains shown)
VH: QVQLVQSGAEVKKPGASVKVSCKASGFNIKDTYIHWVRQAPGKGLEWMGRIDPDNDETLYASKFQGRVTMTADTSINTAYMELSRLRSDDTAVYYCGRGYGYYYFDHWGQGTTVTVSS
VL: AIKMTQSPSSLSASVGDRVTITCRTSRSISKYLAWYQEKPGKTNKLLIYSGSTLQSGIPSRFSGSGSGTDFTLTISSLQPEDFATYYCQQHNENPLTFGAGTKLEIK
notes: also called OKT8_H2.165_L1.103 one-arm mAb
In the case of B4, in experiment [2], the Kd came to 30 nM, the koff is 0.00968 s⁻¹ and the on-rate constant (kon) was 322000 M⁻¹ s⁻¹.

B5: XENP26243 (antibody, V domains shown)
VH: QVQLVQSGAEVKKPGASVKVSCKASGFNIKDTYIHWVRQAPGKGLEWMGRIDPDNDETLYASKFQGRVTMTADTSINTAYMELSRLRSDDTAVYYCGRGWGYYVFDHWGQGTTVTVSS
VL: AIKMTQSPSSLSASVGDRVTITCRTSRSISKYLAWYQEKPGKTNKLLIYSGSTLQSGIPSRFSGSGSGTDFTLTISSLQPEDFATYYCQQHNENPLTFGAGTKLEIK
notes: also called OKT8_H2.166_L1.103 one-arm mAb
B5: in experiment [1], the affinity, expressed as Kd, was 3.14 nM; the koff is 0.00196 s⁻¹; the kon is 626000 M⁻¹ s⁻¹. Moreover, in experiment [2], binding was characterised by a dissociation constant (Kd) of 55.9 nM, the koff amounted to 0.0108 s⁻¹ and the kon was found to be 192000 M⁻¹ s⁻¹.

B6: XENP26241 (antibody, V domains shown)
VH: QVQLVQSGAEVKKPGASVKVSCKASGFNIKDTYIHWVRQAPGKGLEWMGRIDPDNDETLYASKFQGRVTMTADTSINTAYMELSRLRSDDTAVYYCGRGYGKYVFDHWGQGTTVTVSS
VL: AIKMTQSPSSLSASVGDRVTITCRTSRSISKYLAWYQEKPGKTNKLLIYSGSTLQSGIPSRFSGSGSGTDFTLTISSLQPEDFATYYCQQHNENPLTFGAGTKLEIK
notes: also called OKT8_H2.164_L1.103 one-arm mAb
For B6, in experiment [1], the Kd was 55.6 nM, the dissociation rate constant (koff) is 0.0148 s⁻¹ and the on-rate constant (kon) was determined as 265000 M⁻¹ s⁻¹. For the same molecule, in experiment [2], binding was put at a Kd of 67 nM, the koff was determined as 0.00589 s⁻¹ and the kon amounted to 88000 M⁻¹ s⁻¹.

B7: XENP26234 (antibody, V domains shown)
VH: QVQLVQSGAEVKKPGASVKVSCKASGFNIKDTYIHWVRQAPGKGLEWMGRIDPDNGETLYASKFQGRVTMTADTSINTAYMELSRLRSDDTAVYYCGRGYGKYVFDHWGQGTTVTVSS
VL: AIKMTQSPSSLSASVGDRVTITCRTSRSISKYLAWYQEKPGKTNKLLIYSGSTLQSGIPSRFSGSGSGTDFTLTISSLQPEDFATYYCQQHNENPLTFGAGTKLEIK
notes: also called OKT8_H2.157_L1.103 one-arm mAb
As to B7, in experiment [1], binding was characterised by a dissociation constant (Kd) of 48.2 nM, the koff was 0.0124 s⁻¹ and the kon was found to be 258000 M⁻¹ s⁻¹. Further, in experiment [2], the dissociation constant Kd was determined as 55.6 nM, the koff was 0.00448 s⁻¹ and the on-rate (kon) was 80600 M⁻¹ s⁻¹.

B8: KYK-1.0 (anti-NKG2D antigen binding domain) (antibody, V domains shown)
VH: EVQLVESGGGVVQPGGSLRLSCAASGFTFSSYGMHWVRQAPGKGLEWVAFIRYDGSNKYYADSVKGRFTISRDNSKNTKYLQMNSLRAEDTAVYYCAKDRFGYYLDYWGQGTLVTVSS
VL: QPVLTQPSSVSVAPGETARIPCGGDDIETKSVHWYQQKPGQAPVLVIYDDDDRPSGIPERFFGSNSGNTATLSISRVEAGDEADYYCQVWDDNNDEWVFGGGTQLTVL
notes: also called KYK-1.0[NKG2D]_H1L1
For the molecule B8, in experiment [3], the Kd amounted to 170 nM.

B9: HIS-tagged human NKG2D (receptor, UniProt P26718 73-216, looked up)
chain: IWSAVFLNSLFNQEVQIPLTESYCGPCPKNWICYKNNCYQFFDESKNWYESQASCMSQNASLLKVYSKEDQDLLKLVKSYHWMGLVHIPTNGSWQWEDGSILSPNLLTIIEMQKGDCALYASSFKGYIENCSTPNTYICMQRTV
notes: Captured on HIS1K biosensors; not shown: HIS tag
On to B9, for which, in experiment [4], the Kd was 8.66 nM, the dissociation rate constant (koff) was found to be 0.00325 s⁻¹ and the on-rate constant (kon) was determined as 375000 M⁻¹ s⁻¹. Further, in experiment [5], binding was put at a Kd of 2.45 nM, the off-rate constant (koff) came to 0.00123 s⁻¹ and the kon came to 502000 M⁻¹ s⁻¹.

B10: humanized OKT8 variant (H2L1) (antibody)
heavy: QVQLVQSGAEVKKPGASVKVSCKASGFNIKDTYIHWVRQAPGKGLEWMGRIDPANDNTLYASKFQGRVTITADTSINTAYMELSRLRSDDTAVYYCGRGYGYYVFDHWGQGTTVTVSSASTKGPSVFPLAPSSKSTSGGTAALGCLVKDYFPEPVTVSWNSGALTSGVHTFPAVLQSSGLYSLSSVVTVPSSSLGTQTYICNVNHKPSNTKVDKKVEPKSCDKTHTCPPCPAPPVAGPSVFLFPPKPKDTLMISRTPEVTCVVVDVKHEDPEVKFNWYVDGVEVHNAKTKPREEQYNSTYRVVSVLTVLHQDWLNGKEYKCKVSNKALPAPIEKTISKAKGQPREPQVYTLPPSREQMTKNQVKLTCLVKGFYPSDIAVEWESNGQPENNYKTTPPVLDSDGSFFLYSKLTVDKSRWQQGNVFSCSVMHEALHNHYTQKSLSLSPGK
light: DIKMTQSPSSLSASVGDRVTITCRTSRSISQYLAWYQEKPGKTNKLLIYSGSTLQSGIPSRFSGSGSGTDFTLTISSLQPEDFATYYCQQHNENPLTFGAGTKLEIKRTVAAPSVFIFPPSDEQLKSGTASVVCLLNNFYPREAKVQWKVDNALQSGNSQESVTEQDSKDSTYSLSSTLTLSKADYEKHKVYACEVTHQGLSSPVTKSFNRGEC
Fc: EPKSSDKTHTCPPCPAPPVAGPSVFLFPPKPKDTLMISRTPEVTCVVVDVKHEDPEVKFNWYVDGVEVHNAKTKPREEEYNSTYRVVSVLTVLHQDWLNGKEYKCKVSNKALPAPIEKTISKAKGQPREPQVYTLPPSREEMTKNQVSLTCDVSGFYPSDIAVEWESDGQPENNYKTTPPVLDSDGSFFLYSKLTVDKSRWEQGDVFSCSVMHEALHNHYTQKSLSLSPGK
notes: also called OKT8_H2L1
Molecule B10 displayed a Kd in experiment [6] of 200 nM. Also, in experiment [1], the Kd is 12 nM, the koff stood at 0.006 s⁻¹ and the kon worked out at 500000 M⁻¹ s⁻¹. In experiment [2], this molecule displayed a Kd of 202 nM, an off-rate (koff) of 0.0699 s⁻¹ and a kon of 347000 M⁻¹ s⁻¹.

For orientation: Kd means the concentration at which binding is half-saturated. The low end stands for tighter binding, the high end for weaker binding. For orientation: koff means the rate constant with which the complex falls apart. Low values mean a long-lived complex, high ones a short-lived complex. The kon is the rate constant with which the complex forms. Read a high kon as fast association.

Source of the values: patent US12448423 (Xencor, dated 2025).
